{"source": "patent US20120148565", "proteins": {"B1": {"name": "recombinant UBC-18 (C. elegans E2 ubiquitin conjugating enzyme, GST tag removed by thrombin cleavage) (protein)", "chain": "MSATRRLQKELGDLKNCGVKAYENVECEETNLLKWTVLLIPDKEPYNKGAFKVGITFPVDYPFKPPKVAFETKIYHPNVDEEGKFCLPIVTAENWKPATKTEQVMMALLSLINEPEPSHPIRADVAEEFQKDHKKFMKTAEEHTRKHAEKRPE"}}, "key": {"[1]": {"target": "GST fused WWP-1 (C. elegans HECT E3 ubiquitin ligase WWP-1, full length, wild type, N-terminal GST from pGEX-KG)", "sequence (chain, as listed by the source)": "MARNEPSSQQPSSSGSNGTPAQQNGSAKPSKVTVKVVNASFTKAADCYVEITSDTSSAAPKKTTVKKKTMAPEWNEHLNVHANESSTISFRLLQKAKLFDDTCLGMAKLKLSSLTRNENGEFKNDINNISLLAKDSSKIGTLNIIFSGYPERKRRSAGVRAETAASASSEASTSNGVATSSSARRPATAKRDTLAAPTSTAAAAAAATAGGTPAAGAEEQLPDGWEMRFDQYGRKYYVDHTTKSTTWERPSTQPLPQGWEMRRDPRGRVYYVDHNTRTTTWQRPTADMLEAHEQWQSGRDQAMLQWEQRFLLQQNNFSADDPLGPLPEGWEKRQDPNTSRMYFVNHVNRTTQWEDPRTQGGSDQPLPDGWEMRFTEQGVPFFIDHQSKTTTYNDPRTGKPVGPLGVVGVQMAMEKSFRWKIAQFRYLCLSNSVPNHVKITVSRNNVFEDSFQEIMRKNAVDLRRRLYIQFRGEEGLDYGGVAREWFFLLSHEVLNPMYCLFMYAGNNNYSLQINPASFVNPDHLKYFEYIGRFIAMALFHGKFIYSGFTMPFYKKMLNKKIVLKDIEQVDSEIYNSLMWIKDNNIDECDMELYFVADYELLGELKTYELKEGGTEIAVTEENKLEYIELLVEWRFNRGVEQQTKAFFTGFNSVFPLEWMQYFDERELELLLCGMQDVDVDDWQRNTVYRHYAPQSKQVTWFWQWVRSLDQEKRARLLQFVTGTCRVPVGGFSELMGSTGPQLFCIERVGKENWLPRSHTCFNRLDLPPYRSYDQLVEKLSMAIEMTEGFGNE"}}, "data": [{"protein": "B1", "values": [{"measurement": "in vitro ubiquitination assay of WWP-1 with embryo extract from ubc-18(ku354) mutant worms, recombinant UBC-18 added back", "setting": "[1]", "result": "ligase activity was restored with the addition of recombinant UBC-18"}, {"measurement": "in vitro ubiquitination assay using purified components (anti-Flag immunoblot)", "setting": "[1]", "result": "WWP-1 exhibited ubiquitin ligase activity in an E1 and UBC-18 dependent manner"}, {"measurement": "in vitro ubiquitin conjugation reaction, SDS/PAGE with or without beta-mercaptoethanol", "setting": "Flag tagged ubiquitin", "result": "UBC-18 is indeed a functional E2 and is capable of forming a thiol ester bond with ubiquitin"}]}]}
